The values below come from paper PMC5975648.

The data set is described as follows: confocal fluorescence microscopy, ER and mitochondria markers. The following applies: glycan lost; control: Psd1-EGFP.

B1: Psd1: Psd1(N34Q)-EGFP (protein)
parent chain: MSIMPVKNALAQGRTLLMGRMPAVKFSTRMQLRNRTAVLWNRKFSTRLFVQQRRSSGEIVDRAKAAAANSGRKQVSMKWVVLTSFTIVLGTILLVSRNDSTEEDATEGKKGRRTRKIKIFNNNWLFFCYSTLPLNAMSRLWGQVNSLTLPIWVRPWGYRLYSFLFGVNLDEMEDPDLTHYANLSEFFYRNIKPGTRPVAQGEDVIASPSDGKILQVGIINSETGEIEQVKGMTYSIKEFLGTHSHPLMSKSASSLDLTSDEEKHREFARVNRIQLAGSEDTEQPLLNFKNEGDQSVREFKPSVSKNIHLLSQLSLNYFSNGFSCSEPHDTELFFAVIYLAPGDYHHFHSPVDWVCKVRRHFPGDLFSVAPYFQRNFPNLFVLNERVALLGSWKYGFFSMTPVGATNVGSIKLNFDQEFVTNSKSDKHLEPHTCYQAVYENASKILGGMPLVKGEEMGGFELGSTVVLCFEAPTEFKFDVRVGDKVKMGQKLGIIGKNDLK
Take B1: the localisation_or_trafficking result was “no change”.
